These results are taken from patent publication US20250026849A1 (ARCELLX, published 2025).

To fix the notation:
B1: D-domain SEQ ID NO: 260 (designed binder)
chain: MGSWEQFKYRLAIIKYMLEALGGSEAELAWFESWIANFESDLQHYKGKGNPEVEALRKEAAAIRDELQAYRHN
B2: D-domain SEQ ID NO: 261 (designed binder)
chain: B1 chain with E5Q, M17Y, W30G, S33T, W34Y, N37K, S40E, D41V, H44S
B3: D-domain SEQ ID NO: 229 (designed binder)
chain: MGSWIEFAMRLEAIENRLTALGGSEAELAIFESMIAHFEELLQNYKGKGNPEVEALIHEAFAIHKELWAYRHN
B4: D-domain SEQ ID NO: 255 (designed binder)
chain: MGSWHAFKYKLAMIKWYLEALGGSEAELAHFEEWIAEFEALLQEYKGKGNPEVEALRKEAAAIRDELQAYRHN
B5: D-domain SEQ ID NO: 271 (designed binder)
chain: B4 chain with H5N, A6E, K10H, M13V, W16F, E33T, A40Y, L41E, E44K
B6: D-domain SEQ ID NO: 268 (designed binder)
chain: MGSWNTFKYHLAVIKFMLEALGGSEAELAFFEQWIAEFEVTLQSYKGKGNPEVEALRKEAAAIRDELQAYRHN
B7: D-domain SEQ ID NO: 276 (designed binder)
chain: B4 chain with H5S, A6H, K10H, M13L, H30K, E33F, A40H, L41N, E44M
B8: D-domain SEQ ID NO: 270 (designed binder)
chain: B6 chain with T6Q, H10R, M17Y, F30H, Q33T, E37A, V40E, T41Q, S44F
B9: D-domain SEQ ID NO: 273 (designed binder)
chain: B6 chain with N5V, T6D, M17W, F30N, Q33T, E37N, V40Q, T41E, S44M
B10: D-domain SEQ ID NO: 272 (designed binder)
chain: B6 chain with N5V, T6Q, M17Y, F30H, Q33T, T41A, S44G
B11: D-domain SEQ ID NO: 269 (designed binder)
chain: B6 chain with N5T, T6Q, F16W, M17Y, F30G, V40K, S44E
B12: D-domain SEQ ID NO: 228 (designed binder)
chain: MGSWGEFEHRLDPSTCVWLALGGSEAELAAFEKEIAAFESELQAYKGKGNPEVEKLRRGAAVIRHWLQAYRHN
B13: D-domain SEQ ID NO: 231 (designed binder)
chain: MGSWNEFYDRLRAIKKRLYALGGSEAELADFEEDIAQFEVDLQDYKGKGNPEVEALHREAHAITHELWAYRHN
B14: D-domain SEQ ID NO: 225 (designed binder)
chain: MGSWDEFQFRLAAIGFRLGALGGSEAELAAFEKEIAAFESELQAYKGKGNPEVEVLRRQAARIRHLLQAYRHN
B15: D-domain SEQ ID NO: 232 (designed binder)
chain: MGSWGEFKHRLALIKWYLEALGGSEAELAHFEDWIAVFEVQLQNYKGKGNPEVEALRKEAAAIRDELQAYRHN
B16: D-domain SEQ ID NO: 237 (designed binder)
chain: B15 chain with G5Y, E6N, L13I, Y17F, H30V, D33V, V37D, V40H, N44E
B17: D-domain SEQ ID NO: 254 (designed binder)
chain: B4 chain with H5G, A6Y, K10R, H30S, E33S, A40G, L41S, E44A
B18: D-domain SEQ ID NO: 238 (designed binder)
chain: B15 chain with G5D, E6A, D33E, W34Y, V37E, V40S, Q41N, N44S
B19: D-domain SEQ ID NO: 233 (designed binder)
chain: B15 chain with G5Y, L13I, H30K, D33A, V37E, V40M, Q41I, N44R
B20: D-domain SEQ ID NO: 248 (designed binder)
chain: B15 chain with G5H, H9Y, H30T, D33H, W34H, V37Q, V40W, Q41D, N44K
B21: D-domain SEQ ID NO: 240 (designed binder)
chain: MGSWNGFKHRLAIIKWYLEALGGSEAELASFESYIAEFESGLQEYKGKGNPEVEALRKEAAAIRDELQAYRHN
B22: D-domain SEQ ID NO: 235 (designed binder)
chain: B15 chain with G5Y, E6N, L13I, H30R, D33N, W34F, V37N, V40T, N44L
B23: D-domain SEQ ID NO: 239 (designed binder)
chain: B15 chain with G5D, E6G, H30N, D33N, V37E, V40Q, Q41R, N44Y
B24: D-domain SEQ ID NO: 234 (designed binder)
chain: B15 chain with G5Y, L13I, D33Q, W34Y, V37D, V40G, Q41T, N44K
B25: D-domain SEQ ID NO: 241 (designed binder)
chain: B21 chain with G6S, I13L, S30T, S33W, E37S, G41E, E44Q
B26: D-domain SEQ ID NO: 249 (designed binder)
chain: B21 chain with G6M, H9Y, I13H, S30T, S33A, E37D, S40V, G41D, E44K
B27: D-domain SEQ ID NO: 236 (designed binder)
chain: B1 chain with E5F, Y9H, Y16W, M17Q, S33Q, N37D, S40H, D41Q
B28: D-domain SEQ ID NO: 265 (designed binder)
chain: MGSWANFKYRLALIKWHLEALGGSEAELASFEIWIADFEESLQWYKGKGNPEVEALRKEAAAIRDELQAYRHN
B29: D-domain SEQ ID NO: 267 (designed binder)
chain: B28 chain with A5T, N6H, H17W, S30G, I33V, W34H, E40A, S41Q, W44M
B30: D-domain SEQ ID NO: 266 (designed binder)
chain: B28 chain with N6T, S30D, I33E, W34Y, D37G, S41G, W44K
B31: D-domain SEQ ID NO: 244 (designed binder)
chain: B21 chain with N5Y, H9Y, I13V, S33K, E37H, S40H, G41D, E44A
B32: D-domain SEQ ID NO: 250 (designed binder)
chain: B1 chain with E5H, Q6G, Y16W, M17W, W30F, S33E, N37S, S40R, H44I
B33: D-domain SEQ ID NO: 262 (designed binder)
chain: MGSWAGFKYRLAVIKYYLEALGGSEAELAHFEQWIAHFEGMLQDYKGKGNPEVEALRKEAAAIRDELQAYRHN
B34: D-domain SEQ ID NO: 253 (designed binder)
chain: B33 chain with A5S, Y16W, H30T, Q33E, H37E, G40T, M41E, D44F
B35: D-domain SEQ ID NO: 263 (designed binder)
chain: B33 chain with A5T, G6A, V13I, Y16F, Q33S, W34Y, G40D, D44H
B36: D-domain SEQ ID NO: 251 (designed binder)
chain: B33 chain with A5H, Y16W, H30M, Q33G, H37Q, G40I, M41T, D44Q
B37: D-domain SEQ ID NO: 256 (designed binder)
chain: B1 chain with E5Q, Q6H, Y16W, M17Y, W30F, W34F, N37K, S40H, H44K
B38: D-domain SEQ ID NO: 246 (designed binder)
chain: B28 chain with A5Y, N6G, H17Y, I33T, W34Y, E40D, S41L, W44A
B39: D-domain SEQ ID NO: 247 (designed binder)
chain: B21 chain with N5S, G6T, H9Y, R10H, I13V, S33D, E37Q, S40T, G41D
B40: D-domain SEQ ID NO: 245 (designed binder)
chain: B21 chain with N5Y, H9Y, I13V, S33K, E37Q, S40H, G41D, E44A
B41: D-domain SEQ ID NO: 243 (designed binder)
chain: B33 chain with A5S, Y16F, H30S, Q33L, W34F, H37K, G40I, M41D, D44N
B42: D-domain SEQ ID NO: 258 (designed binder)
chain: B1 chain with E5G, Q6A, Y16F, M17Y, W30R, S33E, W34F, S40H, H44N
B43: D-domain SEQ ID NO: 257 (designed binder)
chain: B1 chain with E5N, Q6D, M17Y, W30H, W34Y, N37S, S40H, H44N
B44: D-domain SEQ ID NO: 252 (designed binder)
chain: B6 chain with N5Q, T6G, H10R, F16W, Q33N, V40T, T41K, S44Q
B45: D-domain SEQ ID NO: 242 (designed binder)
chain: B33 chain with A5S, G6D, Y16F, H30S, Q33S, W34F, G40D, M41D, D44K
B46: D-domain SEQ ID NO: 259 (designed binder)
chain: B28 chain with A5Y, L13I, W16F, H17Y, S30Q, D37E, E40H, S41D, W44G
B47: D-domain SEQ ID NO: 227 (designed binder)
chain: MGSWSIEFWRLEAIKFRLIALGGSEAELAAFEKEIAAFESELQAYKGKGNPEVEFLRVEAAAIRRVLQAYRHN
B48: D-domain SEQ ID NO: 226 (designed binder)
chain: MGSWYEFVTRLHAIDHRLKALGGSEADLAAFEKEIAAFESELQAYKGKGNPEVEWLRFYAAGIRMNLQAYRHN
B49: D-domain SEQ ID NO: 264 (designed binder)
chain: B21 chain with N5A, G6H, H9Y, W16F, Y17W, S30N, S33E, G41T, E44V
B50: D-domain SEQ ID NO: 230 (designed binder)
chain: MGSWNEFYQRLEAIENRLQALGGSEAELAMFEVRIALFEDMLQGYKGKGNPEVEALKQEAIAILRELIAYRHN

Where a chain is given by its changes, count along the chain named.

The target of the experiment is T1, BCMA (Homo sapiens (Human), UniProt Q02223 1-54, limits assumed).
T1 sequence: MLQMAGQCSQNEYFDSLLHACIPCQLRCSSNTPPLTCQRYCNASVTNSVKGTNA
As to the kind of experiment: ELISA, format not described. The arrangement: unit not given here. In general terms: An ELISA detects its analyte on a solid surface through an enzyme-linked reagent.
Regarding B1, the ELISA_avg came to 11.
Molecule B2 registered an ELISA_avg of 15.1.
B3 returned an ELISA_avg of 10.7.
Under B4 stands 11.6; under B5, 13.7.
Take B6: the ELISA_avg turned out to be 10.6.
The molecule B7 displayed an ELISA_avg of 7.93.
Under B8 stands 12.8.
In turn, B9 registered an ELISA_avg of 13.2.
With B10 the figure was 12.7.
Under B11 stands 21.1; under B12, 4.05; under B13, 12.4.
B14 gave an ELISA_avg of 6.16.
In turn, B15 displayed an ELISA_avg of 17.1.
B16 returned an ELISA_avg of 16.4.
B17 showed an ELISA_avg of 13.
Under B18 stands 13; under B19, 5.5.
Under B20 stands 16.2.
B21 showed an ELISA_avg of 16.5.
Under B22 stands 6.76; under B23, 23.6; under B24, 14.8.
Consider B25, for which the ELISA_avg is 10.3.
As to B26, the ELISA_avg came out at 16.3.
As for B27, the ELISA_avg is 10.4.
B28 gave an ELISA_avg of 14.3.
B29: the ELISA_avg came to 7.37.
In turn, B30 gave an ELISA_avg of 15.1.
B31 showed an ELISA_avg of 9.05.
With B32 the figure was 6.03.
The molecule B33 showed an ELISA_avg of 12.7.
B34: the ELISA_avg worked out at 14.
For B35, the ELISA_avg is 7.43.
Under B36 stands 5.99; under B37, 8.91.
On to B38, for which the ELISA_avg worked out at 13.
Turning to B39, the ELISA_avg was 11.7.
As for B40, the ELISA_avg was 7.63.
Molecule B41 displayed an ELISA_avg of 13.1.
B42 yielded an ELISA_avg of 12.9.
With B43 the figure was 15.1; with B44, 7.75; with B45, 13.
Consider B46, for which the ELISA_avg is 19.9.
In turn, B47 registered an ELISA_avg of 8.43.
Under B48 stands 4.12.
Molecule B49 displayed an ELISA_avg of 13.1.
Molecule B50 yielded an ELISA_avg of 6.01.
